# Source: patent US20220089736A1
# Assays:
# [1] = molecular target: CD28 (Cluster of Differentiation 28) (human) (UniProt P10747); test: flow cytometry, binding to H929 cells (carry CD28 and BCMA; binding largely dependent upon CD28 arm)
# [2] = molecular target: CD28 (Cluster of Differentiation 28) (human) (UniProt P10747); test: flow cytometry, binding to human pan T cells; antibody without Vβ17 arm
EC50 [1] [µg/mL],EC50 [2] [µg/mL],Binder
0.1,0.06,"VB28B7 (protein, part only; not given: scFvs, linkers, constant regions, not shown: another chain or arm of the molecule; a dimerising Fc or GST; small tags and cut ends) VH: QVQLQQPGSELVRPGASVKLSCKASGYTFTSYWMHWVKQRHGQGLEWIGNIYPGSGRTNYDEKFKSKGTLTVDTSSRTAYMHLSSLTSEDSAVYYCTREHYGSNSHPMDYWGQGTSVTVSS VL: DIQMTQSPASLSASVGETVTITCGASENIYGSLNWYQRKQGKSPQLLIYGATNLADGMSSRFSGSGSGRQFSLKISSLHPDDVATYYCQNLLSTPYTFGGGTKLELK"
0.14,0.15,"VB28B9 (protein, part only; not given: scFvs, linkers, constant regions, not shown: another chain or arm of the molecule; a dimerising Fc or GST; small tags and cut ends) VH: QVQLQQWGAGLLKPSETLSLTCAVYGGSFSGYYWNWIRQPPGKGLQWIGEINHSGTTNYNPSLKSRVTISVDTSKNQFSLKLSSLTAADTAVYYCARGEAVALYWGQGTLVTVSS VL: EIVMTQSPATLSVSPGERATLSCRASQSVNSNLAWYQQKPGQAPRLLIYGASARATGIPARFSGSGSGTEFTLTISSLQSEDFAVYYCQQYYNWPLTFGGGTKVEIK"
